Patent publication US20020102256A1 (ZymoGenetics, published 2002)
“And” between values parts separate entries of the source, which are not always exact repeats. Equal values may be shown once.

T1: Activated human C1s (Calbiochem-Novabiochem Corporation) (human, UniProt P09871 16-688)
T1 sequence (looked up): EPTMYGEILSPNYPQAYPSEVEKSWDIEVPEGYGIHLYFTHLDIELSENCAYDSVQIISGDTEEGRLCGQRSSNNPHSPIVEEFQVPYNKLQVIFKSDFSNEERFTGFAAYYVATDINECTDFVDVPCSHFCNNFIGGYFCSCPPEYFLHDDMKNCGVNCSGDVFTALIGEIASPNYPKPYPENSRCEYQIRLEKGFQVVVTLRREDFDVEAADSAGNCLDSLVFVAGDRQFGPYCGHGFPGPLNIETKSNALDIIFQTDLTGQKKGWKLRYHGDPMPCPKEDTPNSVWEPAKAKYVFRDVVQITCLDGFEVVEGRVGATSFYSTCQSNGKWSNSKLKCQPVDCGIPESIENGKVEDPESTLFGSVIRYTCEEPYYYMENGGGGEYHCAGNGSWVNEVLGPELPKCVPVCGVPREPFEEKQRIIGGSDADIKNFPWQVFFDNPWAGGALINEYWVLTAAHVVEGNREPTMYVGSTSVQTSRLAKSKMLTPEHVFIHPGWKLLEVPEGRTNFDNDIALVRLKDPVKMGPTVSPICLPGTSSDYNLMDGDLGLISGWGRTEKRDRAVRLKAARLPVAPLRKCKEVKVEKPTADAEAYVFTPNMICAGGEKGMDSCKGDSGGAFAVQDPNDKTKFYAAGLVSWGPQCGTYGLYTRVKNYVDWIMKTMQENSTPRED

T2: Activated human C1s (Calbiochem-Novabiochem Corporation) (human) (UniProt P09871)
T2 sequence (looked up): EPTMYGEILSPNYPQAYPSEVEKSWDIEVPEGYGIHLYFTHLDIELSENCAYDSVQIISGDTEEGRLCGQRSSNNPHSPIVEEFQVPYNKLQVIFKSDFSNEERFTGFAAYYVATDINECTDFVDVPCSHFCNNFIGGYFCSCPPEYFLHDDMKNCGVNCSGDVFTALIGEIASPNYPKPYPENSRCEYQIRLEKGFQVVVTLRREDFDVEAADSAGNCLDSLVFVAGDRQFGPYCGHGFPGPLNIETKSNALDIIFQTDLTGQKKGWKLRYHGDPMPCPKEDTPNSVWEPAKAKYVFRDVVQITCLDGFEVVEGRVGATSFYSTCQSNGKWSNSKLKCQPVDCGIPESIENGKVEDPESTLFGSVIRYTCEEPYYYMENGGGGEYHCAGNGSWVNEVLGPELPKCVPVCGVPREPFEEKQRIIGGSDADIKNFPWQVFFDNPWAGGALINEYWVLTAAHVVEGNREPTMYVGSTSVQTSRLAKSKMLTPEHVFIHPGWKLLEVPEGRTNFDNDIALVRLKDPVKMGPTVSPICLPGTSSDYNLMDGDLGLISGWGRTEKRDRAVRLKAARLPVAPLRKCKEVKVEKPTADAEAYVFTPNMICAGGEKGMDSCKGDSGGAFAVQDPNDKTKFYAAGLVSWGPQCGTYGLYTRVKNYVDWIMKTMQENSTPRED


Key:
Test in all cases: cell-based or functional assay
[1] = target: T1, Activated human C1s …
[2] = target: T1, Activated human C1s …; remark: listed apart in the source
[3] = target: T2, Activated human C1s (Calbiochem-Novabiochem Corporation) (human)

| Binder | IC50 (nM), C1s enzyme assay [1] | IC50 (nM), C1s enzyme assay [3] | other results |
| --- | --- | --- | --- |
| Deglycosylated and cleaved recombinant BD001 (other, sulfation of at least one of Tyr117, Tyr119 and Tyr121; glycan at Asn23 removed with PNGase F) chain 1: AKKKLPKCQKQEDCGSWDLKCNNVTKKCECRNQVCGRGCPKERYQRDKYGCRKCLCKGCDGFKCR chain 2: LGCTYGFKTDKKGCEAFCTCNTKETACVNIWCTDPYKCNPESGRCEDPNEEYEYDYE | 21.9 nM | – | – |
| Desulfated and cleaved recombinant BD001 (other, sulfate groups removed from Tyr117/Tyr119/Tyr121 with aryl sulfatase; glycosylation at Asn23 (fucosylated complex-type core)) chain 1: AKKKLPKCQKQEDCGSWDLKCNNVTKKCECRNQVCGRGCPKERYQRDKYGCRKCLCKGCDGFKCR chain 2: LGCTYGFKTDKKGCEAFCTCNTKETACVNIWCTDPYKCNPESGRCEDPNEEYEYDYE | 558 nM | – | – |
| Cleaved recombinant BD001 (other, sulfation of at least one of Tyr117, Tyr119 and Tyr121; glycosylation at Asn23 (fucosylated complex-type core)) chain 1: AKKKLPKCQKQEDCGSWDLKCNNVTKKCECRNQVCGRGCPKERYQRDKYGCRKCLCKGCDGFKCR chain 2: LGCTYGFKTDKKGCEAFCTCNTKETACVNIWCTDPYKCNPESGRCEDPNEEYEYDYE | 19.8 nM | – | fold higher IC50 than the matched, intact form, C1s enzyme assay [2]: ~10 fold |
| Recombinant BD001 expressed in Baculovirus (protein, glycosylation at Asn23 (fucosylated complex-type core); sulfation of at least one of Tyr117, Tyr119 and Tyr121 (tyrosine sulfation at the C-terminus on three tyrosine residues)) AKKKLPKCQKQEDCGSWDLKCNNVTKKCECRNQVCGRGCPKERYQRDKYGCRKCLCKGCDGFKCRLGCTYGFKTDKKGCEAFCTCNTKETACVNIWCTDPYKCNPESGRCEDPNEEYEYDYE | – | 2.5 nM | IC50, C1s enzyme assay (decrease in Vmax of Pefa-C1E cleavage) [3]: 5.2 nM |
| Desulfated recombinant BD001 (protein, sulfate groups removed from Tyr117/Tyr119/Tyr121 with aryl sulfatase; glycosylation at Asn23) AKKKLPKCQKQEDCGSWDLKCNNVTKKCECRNQVCGRGCPKERYQRDKYGCRKCLCKGCDGFKCRLGCTYGFKTDKKGCEAFCTCNTKETACVNIWCTDPYKCNPESGRCEDPNEEYEYDYE | – | 36 nM | – |
| BD001 protein isolated from Pichia methanolica (protein, lacks tyrosine sulfation at the C-terminus and N-glycosylation) AKKKLPKCQKQEDCGSWDLKCNNVTKKCECRNQVCGRGCPKERYQRDKYGCRKCLCKGCDGFKCRLGCTYGFKTDKKGCEAFCTCNTKETACVNIWCTDPYKCNPESGRCEDPNEEYEYDYE | – | – | IC50, C1s enzyme assay (decrease in Vmax of Pefa-C1E cleavage) [3]: 44 nM; fold decrease in activity in bioassays compared with the baculovirus-expressed material [3]: 10 fold; fold less active than the baculovirus material, C1s enzyme assay [3]: 8 fold |
| BD001 isolated from tissue (protein, glycosylation at Asn23 (fucosylated complex-type core); sulfation of at least one of Tyr117, Tyr119 and Tyr121) AKKKLPKCQKQEDCGSWDLKCNNVTKKCECRNQVCGRGCPKERYQRDKYGCRKCLCKGCDGFKCRLGCTYGFKTDKKGCEAFCTCNTKETACVNIWCTDPYKCNPESGRCEDPNEEYEYDYE | – | 4 nM and 4.7 nM | – |
| Deglycosylated recombinant BD001 (protein, glycan at Asn23 removed with PNGase F; sulfation of at least one of Tyr117, Tyr119 and Tyr121) AKKKLPKCQKQEDCGSWDLKCNNVTKKCECRNQVCGRGCPKERYQRDKYGCRKCLCKGCDGFKCRLGCTYGFKTDKKGCEAFCTCNTKETACVNIWCTDPYKCNPESGRCEDPNEEYEYDYE | – | 2.86 nM | – |
